Source: patent US20250304677A1 (VIB VZW, published 2025)
Residue numbers refer to the chain shown, from its start. Names and notes keep the numbering of the source.

Legend:
[1] = target: T1, mouse folate receptor alpha (mFRα), recombinant protein (mouse, UniProt P35846 25-232); assay: BLI, periplasmic extract, FRα on AR2G biosensors
T1 construct: Bought recombinant proteins (e.g. biotinylated, Acro Biosystems FO1-M82E9); also called mFOLR1; Ms FOLR1
Method: (§1) After panning of core76/77 on human and mouse folate receptor alpha ^{∘}FRα), […] were randomly selected from the second and third rounds and analyzed by ELISA on both human and mouse FRα for the presence of FRα-specific VHHs in their periplasmic extracts ^{∘}PE). This led to the identification of 98 hits. For these 98 hits, the off-rate ^{∘}koff) in the PE was determined by biolayer interferometry ^{∘}BLI) on both mouse and human FRα that was directly immobilized onto AR2G biosensors. The off-rates were calculated using a 1:1 binding model. […] Abbreviations: SE: standard error.

[2] = target: T2, human folate receptor alpha (hFRα), recombinant protein (human, UniProt P15328 25-233); assay: BLI, periplasmic extract, FRα on AR2G biosensors
T2 construct: Bought recombinant proteins (His-tagged, or biotinylated via Avi-tag, e.g. AcroBiosystems FO1-H82E2, F01-H52H1); also called hFOLR1; huFOLR1
T2 sequence (P15328 25-233 limits assumed): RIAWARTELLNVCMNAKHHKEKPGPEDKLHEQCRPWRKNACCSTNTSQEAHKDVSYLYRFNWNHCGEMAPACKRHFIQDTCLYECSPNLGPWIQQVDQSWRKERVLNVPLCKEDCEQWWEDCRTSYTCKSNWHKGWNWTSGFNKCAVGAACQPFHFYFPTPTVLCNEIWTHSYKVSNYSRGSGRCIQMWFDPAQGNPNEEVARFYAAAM
Method: as §1

[3] = target: T1, mouse folate receptor alpha (mFRα), …; assay: BLI, FRα on AR2G biosensors, 1:1 model
Method: (§2) As a next step, the kinetic binding constants were determined using BLI ^{∘}Table 3). […] Similar to the ELISA results ^{∘}FIG. 1A-B), higher binding affinities were measured for mouse FRα than human FRα, with KD values […] one order of magnitude in most cases. […] For 3HFO28, binding to human FRα could not be confirmed by BLI, and this VHH was excluded from further characterization.
(§3) The kinetic parameters were calculated using a 1:1 binding model.

[4] = target: T2, human folate receptor alpha (hFRα), …; assay: BLI, FRα on AR2G biosensors, 1:1 model
Method: as §2, §3

[5] = target: T1, mouse folate receptor alpha (mFRα), …; assay: ELISA on recombinant mouse FOLR1, cMyc tag detection, normalised binding, non-linear fit
Method: (§4) Data were normalized and technical replicates were plotted as mean±SD. Data were fitted by non-linear regression and the half-maximal effective concentration ^{∘}EC50) was calculated using GraphPad Prism 9 software. ^{∘}FIG. 1C and FIG. 1D) Binding affinity determination of anti-FOLR1 VHHs for native FOLR1. Mouse ^{∘}FIG. 1C) or human FOLR1 FIG. 1D) was overexpressed on HEK293T cells and binding of the anti-FOLR1 VHHs was assessed using flow cytometry. The mean fluorescence intensity ^{∘}MFI) of the phycoerythrin signal was plotted for each VHH concentration. Data were fitted by non-linear regression using GraphPad Prism 9 software. ^{∘}FIG. 1E) Determination of the competition of representative family members with folic acid ^{∘}FA) using ELISA. Mouse FOLR1 was coated on the plate and was pre-incubated with or without 100 μM FA before adding the VHHs. Data were fitted by non-linear regression using GraphPad Prism 9 software.
(§5) In a first step, binding affinity and cross-reactivity of the purified VHHs to human and mouse FRα was assessed by ELISA, using detection of the cMyc tag ^{∘}FIG. 1A-B). […] 2HFO19 ^{∘}family 1) was the best binder of all tested VHHs to both mouse and human FRα with an EC₅₀ of 0.1 nM and 0.4 nM respectively ^{∘}FIG. 1A-B).

[6] = target: T3, mouse folate receptor alpha expressed on transfected HEK293T cells (mouse, UniProt P35846 25-232); assay: flow cytometry on HEK293T cells overexpressing mouse FOLR1, His tag detection, PE MFI, non-linear fit
T3 construct: also called cell-expressed mouse FRα
T3 sequence (P35846 25-232 limits assumed): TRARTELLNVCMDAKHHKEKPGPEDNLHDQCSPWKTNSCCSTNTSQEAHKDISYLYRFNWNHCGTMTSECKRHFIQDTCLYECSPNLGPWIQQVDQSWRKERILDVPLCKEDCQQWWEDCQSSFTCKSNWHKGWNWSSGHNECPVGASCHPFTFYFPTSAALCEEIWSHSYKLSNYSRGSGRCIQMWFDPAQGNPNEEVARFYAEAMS
Method: as §4

[7] = target: T2, human folate receptor alpha (hFRα), …; assay: ELISA on recombinant human FOLR1, cMyc tag detection, normalised binding, non-linear fit
Method: as §4, §5

[8] = target: T4, human folate receptor beta (FRβ) (human, UniProt P14207 17-230, limits assumed); assay: method not named (follows the ELISA of Example 3)
T4 construct: also called hFOLR2; human FOLR2
T4 sequence (P14207 17-230 limits assumed): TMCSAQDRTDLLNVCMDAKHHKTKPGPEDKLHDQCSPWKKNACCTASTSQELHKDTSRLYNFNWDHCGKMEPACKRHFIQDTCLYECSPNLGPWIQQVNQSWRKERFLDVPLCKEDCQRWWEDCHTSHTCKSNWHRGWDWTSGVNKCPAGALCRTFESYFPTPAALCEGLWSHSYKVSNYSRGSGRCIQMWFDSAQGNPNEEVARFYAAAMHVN

[9] = target: T1, mouse folate receptor alpha (mFRα), …; assay: ELISA, periplasmic extract
Description: (§6) From the lymphocytes of each llama a separate VHH library was constructed to select and screen for the presence of antigen-specific VHHs. To this end, total RNA from peripheral blood lymphocytes was used as template for first strand cDNA synthesis with an oligo ^{∘}dT) primer. Using this cDNA, the VHH encoding sequences were amplified by PCR, digested with PstI and NotI, cloned into the PstI and NotI sites of the phagemid vector pMECS and transformed into E. coli to generate VHH libraries. To enrich these libraries for FRα ^{∘}or FOLR1, as used interchangeably herein)-specific VHHs, a combinatorial panning approach on recombinant human and mouse FOLR1 was used followed by random selection and screening of clones by ELISA for the presence of antigen-specific VHHs in their periplasmic extracts ^{∘}PEs). In order to gauge the cross-reactivity for human and mouse FOLR1, each clone was tested on both antigens.
as §1

[10] = target: T2, human folate receptor alpha (hFRα), …; assay: ELISA, periplasmic extract
Description: as §6, §1

[11] = target: T5, human folate receptor alpha expressed on cells (transfected HEK293T, HeLa, MCF7, MDA-MB-231) (human, UniProt P15328 25-234); assay: flow cytometry on HEK293T cells overexpressing human FOLR1, His tag detection, PE MFI, non-linear fit
T5 construct: HEK293T transiently transfected with human FOLR1; also called native human FRα; cell-expressed human FOLR1
T5 sequence (P15328 25-234 limits assumed): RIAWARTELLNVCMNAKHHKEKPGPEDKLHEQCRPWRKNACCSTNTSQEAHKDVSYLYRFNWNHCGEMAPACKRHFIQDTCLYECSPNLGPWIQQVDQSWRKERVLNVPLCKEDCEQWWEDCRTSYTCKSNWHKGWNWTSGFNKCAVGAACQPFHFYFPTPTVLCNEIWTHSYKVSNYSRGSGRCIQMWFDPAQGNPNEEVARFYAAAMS
Method: as §4

[12] = target: T1, mouse folate receptor alpha (mFRα), …; assay: ELISA on mouse FRα, anti-VHH detection
Procedure, shortened: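 An ELISA using anti-VHH detection measured how VHH binding to mouse folate receptor alpha changed with dose. Each EC50 was read from the resulting dose-response curve.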

[13] = target: T2, human folate receptor alpha (hFRα), …; assay: ITC, VHH injected into 6.5 µM glycosylated human FOLR1
Description: (§7) To exclude the presence of a potential additional binding site mediated by the CDR4 region, we determined the stoichiometry if the humanized variant h1 2HFO42 (P01500001) and h1 2MFR67 (P01500005) interaction with human FOLR1 in isothermal titration […] (ITC) studies, using glycosylated human FOLR protein (AcroBiosystems Cat. Nr F01-H52H1). All proteins were dialysed overnight to PBS buffer and concentrated using Amicon Ultra 10 kDa cut-off centrifugal filter devices. Human FOLR1 was used at a concentration of 6.5 μM in the cell. Titrations comprised 26×1.5 μL injections of VHH into the protein, with 90 s intervals. An initial injection of ligand (0.4 μL) was made and discarded during data analysis. All data were performed at room temperature. The data were fitted to a single binding site model using the PEAQ ITC analysis software provided by the manufacturer.
Similarly, a stoichiometry of 1:1 was determined for the 2MFR67-FOLR1 interaction. When comparing the thermodynamic parameters, binding of 2MFR67 to FOLR1 comes with an entropic penalty, whereas the entropic contribution for humanised 2HFO42-FOLR1 binding is favorable. This could be a consequence of the CDR4 loop having more freedom in 2MFR67, resulting in an entropic penalty upon binding. […]

[14] = target: T2, human folate receptor alpha (hFRα), …; assay: ITC, VHH injected into 6.5 µM glycosylated human FOLR1 in PBS, room temperature, single binding site model
Description: as §7

[15] = target: T2, human folate receptor alpha (hFRα), …; assay: competition AlphaLISA against 2MFR67-Flag3-His6 on human FRα
Method: Secondly, the variants were analysed for the capacity to compete with binding of family 3 VHH 2MFR67 to human FRα in a competition AlphaLISA, which is a homogeneous assay without wash steps. In here, human FRα biotinylated through an Avi-tag ^{∘}FO1-H82E2, AcroBiosystems) is captured on streptavidin coated Alpha Donor beads ^{∘}Perkin Elmer, Cat nr. 6760002), while the 2MFR67 is captured on anti-Flag antibody AlphaLISA acceptor beads ^{∘}Perkin Elmer, Cat nr. AL112C). Binding of 2MFR67 to the FRα leads to an energy transfer from one bead to the other, ultimately producing a fluorescent signal. To each well of white low binding 384-well microtitre plates ^{∘}F-bottom, Greiner Cat nr 781904), 5 μl of serial-diluted VHHs are mixed with 5 μl of 2.5 nM monovalent 2MFR67-Flag3-His6 and 5 μl of 15 nM biotinylated human FRα protein. After an incubation for 1 hour at room temperature, streptavidin coated Alpha Donor beads and anti-Flag AlphaLISA acceptor beads were added to a final concentration of 20 μg/mL each in a final volume of 25 μl for an incubation of 1 hour at room temperature in the dark. Interaction between beads was assessed after illumination at 680 nm and reading at 615 nm of on an Ensight instrument. Curve fitting is done in Graphpad Prism 9.0 using 4PL non-linear regression analysis.

[16] = target: T1, mouse folate receptor alpha (mFRα), …; assay: BLI, Avi-biotinylated FRα on streptavidin biosensors, VHH 100 nM
Method: (§8) The binding of humanized variants of 2HFO42 was assessed by kinetic binding analysis to mouse and human FRα protein, biotinylated via an Avi-tag, captured on streptavidin biosensors by biolayer interferometry ^{∘}BLI), essentially as described earlier. VHHs were analysed at 100 nM concentration, and off-rates were determined using fitting of 1:1 langmurian interaction. Dissociation constants were compared to 2HFO42^{∘}Q1E, Q5V, Q108L) ^{∘}P101500004) and 2MFR67 ^{∘}Q1E, Q5V, Q108L) ^{∘}P0150000), respectively.

[17] = target: T2, human folate receptor alpha (hFRα), …; assay: as above
Method: as §8

T1 sequence (P35846 25-232 limits assumed): as the sequence (P35846 25-232 limits assumed) above

B1: VHH 2MFR7 (family 1) (VHH)
VHH: QVQLQESGGGLVQPGGSLRLSCAASGFPFSTYYMSWVRQAPGKGLEWVSGINSNGGVIDYADSVKGRFTISRDNAKNTLYLQLNSLKPEDTALYFCARGRAFVATMPSSLRGQGTQVTVSS
notes: also called 2MFRO7
- koff [1]: 0.0542 s⁻¹
- koff [2]: 0.108 s⁻¹
- Kd [3]: 16.7 nM
- koff [3]: 0.0527 s⁻¹
- kon [3]: 3.15e+06 M⁻¹ s⁻¹
- Kd [4]: 70.9 nM
- koff [4]: 0.0849 s⁻¹
- kon [4]: 1.2e+06 M⁻¹ s⁻¹
- EC50 [5]: 0.6 nM
- EC50 [6]: 1.5 nM
- EC50 [7]: 11.6 nM
- binding result [8]: no binding
- PE-ELISA (ratio to uncoated well) [9]: 14.1
- PE-ELISA (ratio to uncoated well) [10]: 12.4
- EC50 [11]: 20.2 nM

B2: VHH 3HFO26 (family 1) (VHH)
VHH: B1 VHH with L20I, S21T, A23V
- koff [1]: 0.0135 s⁻¹
- koff [2]: 0.0582 s⁻¹
- Kd [3]: 7.86 nM
- koff [3]: 0.0197 s⁻¹
- kon [3]: 2.5e+06 M⁻¹ s⁻¹
- Kd [4]: 662 nM
- koff [4]: 0.182 s⁻¹
- kon [4]: 275000 M⁻¹ s⁻¹
- EC50 [5]: 0.3 nM
- EC50 [6]: 1.4 nM
- EC50 [7]: 20.3 nM
- binding result [8]: no binding
- PE-ELISA (ratio to uncoated well) [9]: 4.9
- PE-ELISA (ratio to uncoated well) [10]: 4.8
- EC50 [11]: 7 nM

B3: P01500001 = humanised variant 1 (h1) 2HFO42-His6: 2HF042(Q1E, Q5V, A14P, V40A, L79Y, K83R, Q108L)-HIS6 (VHH)
VHH: EVQLVESGGGLVQPGGSLRLSCAASGSGFSGMIMGWYRQAPGKQRELVATVTSHGTTNYADSVKGRFTISRDNAKNTVYLQMNSLRPEDTAVYYCNAHFPGIYWGKGTLVTVSS
notes: Entry includes the tag; also called P0150001; humanised 2HFO42
- EC50 (read off the curve) [12]: ~4 nM
- stoichiometry (ITC) [13]: 1
- -TΔS [14]: -3.04 kcal/mol
- Kd [14]: 39.2 nM
- ΔG [14]: -10.1 kcal/mol
- ΔH [14]: -7.07 kcal/mol
- IC50 [15]: 37.3 nM
- koff [16]: 0.00126 s⁻¹
- koff [17]: 0.011 s⁻¹

B4: P01500005: 2MFR67(Q1E, Q5V, Q108L)-HIS6 (VHH)
VHH: B3 VHH with P14A, D72E, N73D, A74S, Y79L, R86K
notes: Entry includes the tag; also called 2MFR67 (P01500005); P0150005
- EC50 (read off the curve) [12]: ~3 nM
- stoichiometry (ITC) [13]: 1
- -TΔS [14]: 3.57 kcal/mol
- Kd [14]: 18.2 nM
- ΔG [14]: -10.6 kcal/mol
- ΔH [14]: -14.1 kcal/mol
- IC50 [15]: 5.53 nM
- koff [16]: 0.000532 s⁻¹
- koff [17]: 0.00353 s⁻¹
